# Test results published in US20200048648.
# Assays:
# Experiment in all cases: cell_activity
# [1] = tested on: MsCOMT_T02.1 TALE nuclease left monomer (synthetic construct); details: value for nuclease pair; alfalfa protoplasts, 28 C, 2 days
# [2] = tested on: MsCOMT_T01.1 TALE nuclease right monomer (synthetic construct); details: value for nuclease pair; alfalfa protoplasts, 28 C, 2 days
# [3] = tested on: MsCOMT_T01.1 TALE nuclease left monomer (synthetic construct); details: value for nuclease pair; alfalfa protoplasts, 28 C, 2 days; left site boundary inferred from 15 bp spacer
# [4] = tested on: MsCOMT_T03.1 TALE nuclease right monomer (synthetic construct); details: value for nuclease pair; alfalfa protoplasts, 28 C, 2 days
# [5] = tested on: MsCOMT_T03.1 TALE nuclease left monomer (synthetic construct); details: value for nuclease pair; alfalfa protoplasts, 28 C, 2 days
# [6] = tested on: MsCOMT_T02.1 TALE nuclease right monomer (synthetic construct); details: value for nuclease pair; alfalfa protoplasts, 28 C, 2 days
sequence,measurement,setting,value
TGAACTTGATCTCTTAG (double strand) [MsCOMT_T02.1 left half-site],activity (% mutation frequency),[1],15.9
ACATATCAGATGAAGAA (double strand) [MsCOMT_T01.1 right half-site (top strand)],activity (% mutation frequency),[2],12.6
TTCAACAGGTGAAACTC (double strand) [MsCOMT_T01.1 left half-site],activity (% mutation frequency),[3],12.6
GCACCAGTTATGTTGGA (double strand) [MsCOMT_T03.1 right half-site (top strand)],activity (% mutation frequency),[4],14.1
TTGCTTCTCAGCTACCA (double strand) [MsCOMT_T03.1 left half-site],activity (% mutation frequency),[5],14.1
CTGGACCTGGTGCTCAA (double strand) [MsCOMT_T02.1 right half-site (top strand)],activity (% mutation frequency),[6],15.9
